The numbers were not newly measured in paper PMC11743636, which cites them from elsewhere.

One may read the Kd as the equilibrium constant for the complex coming apart.

Data set [1] addresses sgp130 (Homo sapiens) (UniProt P40189).
Data set [2] deals with sIL-6R (Homo sapiens) (UniProt P08887).
Chain of sIL-6R (Homo sapiens) (P08887 20-355): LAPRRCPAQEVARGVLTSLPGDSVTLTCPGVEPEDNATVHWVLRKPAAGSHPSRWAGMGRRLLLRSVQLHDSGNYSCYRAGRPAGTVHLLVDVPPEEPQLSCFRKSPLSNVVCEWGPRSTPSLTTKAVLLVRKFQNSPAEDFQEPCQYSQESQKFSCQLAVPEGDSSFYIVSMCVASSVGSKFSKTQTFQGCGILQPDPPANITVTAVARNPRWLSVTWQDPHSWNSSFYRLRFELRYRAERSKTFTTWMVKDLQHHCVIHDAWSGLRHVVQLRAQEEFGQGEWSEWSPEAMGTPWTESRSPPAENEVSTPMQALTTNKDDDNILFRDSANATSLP

Chain of sgp130 (Homo sapiens) (P40189 23-619): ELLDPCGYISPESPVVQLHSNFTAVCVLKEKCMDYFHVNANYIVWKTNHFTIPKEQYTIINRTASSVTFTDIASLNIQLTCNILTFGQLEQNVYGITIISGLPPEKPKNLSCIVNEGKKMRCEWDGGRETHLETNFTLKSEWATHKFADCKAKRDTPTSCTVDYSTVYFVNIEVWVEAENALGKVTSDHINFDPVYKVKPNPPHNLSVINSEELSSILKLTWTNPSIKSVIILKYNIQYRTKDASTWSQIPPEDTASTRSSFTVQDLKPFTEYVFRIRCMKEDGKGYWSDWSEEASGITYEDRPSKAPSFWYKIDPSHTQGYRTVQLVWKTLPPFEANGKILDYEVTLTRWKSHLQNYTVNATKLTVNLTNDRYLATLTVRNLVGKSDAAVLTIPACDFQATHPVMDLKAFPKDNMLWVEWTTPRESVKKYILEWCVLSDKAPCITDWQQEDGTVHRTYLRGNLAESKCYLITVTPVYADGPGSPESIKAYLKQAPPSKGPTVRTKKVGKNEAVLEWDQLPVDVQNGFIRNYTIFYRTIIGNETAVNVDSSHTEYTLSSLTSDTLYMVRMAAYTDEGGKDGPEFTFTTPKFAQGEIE

In the case of “IL-6/sIL-6R complex (from UniProt P05231)”, in data set [1], the Kd was 0.05 nM.

With IL-6 (from UniProt P05231), the Kd in data set [2] is 0.5 nM.
